The test system of assay [1] is Lol p V reactive T Cells. As to the kind of experiment: T cell proliferation (tritiated thymidine) of Lol p V-primed T cell lines from grass-allergic patients. In kind it is cell-based, human. The note with it: one allergic patient; results not shown. From the text: As discussed in Example 2, human T cell stimulating activity can be tested by culturing T cells obtained from an individual sensitive to Lol p V allergen, (i.e., an individual who has an IgE mediated immune response to Lol p V allergen) with a peptide derived from the allergen and determining whether proliferation of T cells occurs in response to the peptide as measured, e.g., by cellular uptake of tritiated thymidine. Stimulation indices for responses by T cells to peptides can be calculated as the maximum CPM in response to a peptide divided by the control CPM. A stimulation index (S.I.) equal to or greater than two times the background level is considered “positive”. […]
In addition, preferred peptides have a positivity index (P.I.) of at least about 60, more preferably about 100, more preferably at least about 200 and most preferably at least about 300. The positivity index for a peptide is determined by multiplying the mean T cell stimulation index by the percent of individuals, in a population of individuals sensitive to ryegrass pollen (e.g., preferably a population of at least 15 individuals, more preferably a population of at least 30 individuals or more), who have a T cell stimulation index to such peptide of at least 2.0. […]
This amount of priming antigen was determined to be optimal for the activation of T cells from most grass-allergic patients. […]

Assay [2] relates to human IgE. As to the kind of experiment: Direct ELISA of human IgE binding to coated antigen. Here is the method: (§1) To examine the importance of Lol p V, both direct and competition ELISA assays were performed. In the direct ELISA, 100 μl of 10 μg/ml of antigen in Phosphate Buffered Saline, pH 7.4 (PBS) was used to coat Immulon II (Dynatech, Chantilly, Va.) 96 well plates for 4 hours at room temperature (RT) or overnight (O/N) at 4° C. In between each step the plates were washed 3× with PBS-T. The excess coating antigen(s) was removed and the wells blocked with 300 μl/well 0.5% gelatin +1 mg/ml PVP in PBS for 1 hour at RT. Serially diluted patient plasma or the diluent PBS+0.05% Tween^−20 was incubated in at 100 μl/well in duplicate wells overnight at 4° C. […] Plates were read on a MR7000 plate reader (Dynatech, Chantilly, Va.) with a 450 nm filter. The absorbance levels of duplicate wells were averaged. The results were graphed as absorbance vs. dilution. […] The results are plotted as the absorbance vs. the log of the concentration of competing antigen.
For the direct ELISA, wells were coated with either soluble pollen extract (SPE) of ryegrass pollen or rLol p V (purified native Lol p V may have a small amount of Lol p I; use of recombinant material assures that the IgE binding is only to Lol p V) and human IgE antibody binding to these antigens was analyzed. […]

For assay [3], the system named is human basophil mediator release. Kind of assay: Histamine release assay on whole blood of a ryegrass allergic individual. In kind it is cell-based. The note with it: one ryegrass allergic individual; whole heparinized blood; 37° C., 30 minutes; FIG. 12. Here is the method: A histamine release assay was performed on one ryegrass allergic individual, using Lol p SPE and rLol p V as the added antigens. This assay is a measure of IgE reactivity through human basophil mediator release, and it is based on the detection of an acylated derivative of histamine using a specific monoclonal antibody (Morel, A. M. and Delaage, M. A.; 1988, J. Allergy Clin. Immunol. 82: 646–654). The reagents for this radioimmunoassay are sold as a kit by Amac Inc. (Westbrook, Me.). Whole heparinized blood drawn from a grass allergic individual and then […] aliquots were mixed with an equal amount of the grass antigens SPE and rLol p V at various concentrations or the diluent, PACM buffer (25 mM PIPES, 100 mM NaCl, 5 mM KCL, 4 mM CaCl2, 1 mM MgCl2, 0.003% HSA, pH7.3) in 1.5 ml polypropylene. The release reactions were carried out at 37° C. for 30 minutes. After this incubation the samples were centrifuged at 1500 RPM for 3 minutes and the supernatants removed. For the total histamine release, 0.1 ml of blood was added to 0.9 ml of PACM buffer, vortexed, and then boiled for 3 minutes. The samples were spun at 13000 RPM and the supernatant removed for analysis. Duplicate samples were used to measure total release. All of the supernatants are diluted 1:4 in acylation buffer and the remainder of the assay is performed according to the manufacturer's instructions.

Assay [4] concerns human IgE. As to the kind of experiment: Competition ELISA for IgE binding to ryegrass pollen SPE. The note with it: IgE source PHP-A or individual patient plasma; FIGS. 10 and 11. Here is the method: as §1
In the competition assay, ELISA wells were coated with ryegrass pollen SPE and then allergic patient IgE binding was measured in the presence of competing ryegrass pollen SPE, purified native Lol p V, or rLol p V. The source of allergic IgE in this assay was PHP-A (FIG. 10) or individual patient plasma (FIG. 11). […]

The subject of assay [5] is specific IgE. The following applies: immunoblotting; WO 93/04174, page 65; cited from earlier work. (A western blot detects proteins with antibodies after separation by electrophoresis.)

Data on three molecules can be found in patent US7112333B1, “T cell epitopes of ryegrass pollen allergen” (Heska Corporation, priority 1994, dated 2006).

B1: purified native Lol p V: Lol p V allergens affinity-purified from ryegrass pollen on mAb 1B9 column (protein)
chain: ADAGYTPAAAATPATPAATPAAAGGKATTDEQKLLEDVNAGFKAAVAAAANAPPADKFKIFEAAFSESSKGLLATSAAKAPGLIPKLDTAYDVAYKAAEGATPEAKYDAFVTALTEALRVIAGALEVHAVKPATEEVPAAKIPTGELQIVDKIDAAFKIAATAANAAPTNDKFTVFESAFNKALNECTGGAYETYKFIPSLEAAVKQAYAATVAAAPEVKYAVFEAALTKAITAMTQAQKAGKPAAAAATGAATVATGAATAAAGAATAAAGGYKA
modifications: non-natural residues
For the molecule B1, the “T cell proliferative response of one patient” value in assay [1] was “responds well”.

B2: rLol p V: bacterially expressed recombinant Lol p V encoded by clone 12R, with His6 sequence (protein)
chain: MHHHHHHMAVQKYTVALFLAVALVAGPAASYAADAGYTPAAAATPATPAATPAAAGGKATTDEQKLLEDVNAGFKAAVAAAANAPPADKFKIFEAAFSESSKGLLATSAAKAPGLIPKLDTAYDVAYKAAEGATPEAKYDAFVTALTEALRVIAGALEVHAVKPATEEVPAAKIPTGELQIVDKIDAAFKIAATAANAAPTNDKFTVFESAFNKALNECTGGAYETYKFIPSLEAAVKQAYAATVAAAPEVKYAVFEAALTKAITAMTQAQKAGKPAAAAATGAATVATGAATAAAGAATAAAGGYKA
Take B2: in assay [1], the “T cell proliferative response of one patient” value is “responds well”. Moreover, the “IgE binding in direct ELISA” value in assay [2] (IgE source PHP-A, PHP-B or four individual patients, FIGS. 6-9) was “high IgE binding”. For the same molecule, the “IgE binding in direct ELISA (reactivity to Lol p V peptides)” value in assay [2] (IgE source PHP-B, preliminary assay, FIG. 13a and 13b) is reported as “very high IgE binding”. Moreover, in assay [3], the histamine release entry is listed as “strong histamine release over a wide concentration range”.

B3: Lol p V: major ryegrass (Lolium perenne) pollen protein allergen (protein)
chain: B2 chain
B3: the “competition for IgE binding to ryegrass pollen SPE” value in assay [4] is “significant portion of IgE against Lol p SPE is specific for Lol p V”. In assay [5], the “ryegrass pollen sensitive patients possessing specific IgE antibody that bound” value is 80%.
